Experimental data as given in patent US20180105596A1 (ELSALYS BIOTECH, published 2018).

T1: hTyro 3-ECD
T1 construct: not the His-Strep tagged ECD m13; also called Recombinant Human Dtk-Fc Chimera (R&D Systems 859-DK-100); not shown: Human Fc, and any linker, of the commercial chimera (R&D Systems 859-DK-100)
T1 chain: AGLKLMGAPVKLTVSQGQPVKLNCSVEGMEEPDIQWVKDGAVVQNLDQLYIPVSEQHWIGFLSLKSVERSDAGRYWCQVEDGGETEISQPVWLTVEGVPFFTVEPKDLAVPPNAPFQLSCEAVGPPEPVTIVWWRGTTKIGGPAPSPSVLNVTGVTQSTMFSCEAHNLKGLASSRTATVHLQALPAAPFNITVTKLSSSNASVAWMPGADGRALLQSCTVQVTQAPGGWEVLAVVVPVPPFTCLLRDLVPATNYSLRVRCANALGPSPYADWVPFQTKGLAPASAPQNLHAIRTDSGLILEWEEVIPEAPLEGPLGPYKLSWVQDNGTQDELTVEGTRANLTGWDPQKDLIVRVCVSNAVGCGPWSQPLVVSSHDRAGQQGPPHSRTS

T2: extracellular domain of human Mer, Fc fusion (R&D Systems 891-MR-100) (human, UniProt Q12866 21-505)
T2 construct: Bought protein; also called hMer; hMER; not shown: Fc of the bought ECD-Fc fusion
T2 sequence: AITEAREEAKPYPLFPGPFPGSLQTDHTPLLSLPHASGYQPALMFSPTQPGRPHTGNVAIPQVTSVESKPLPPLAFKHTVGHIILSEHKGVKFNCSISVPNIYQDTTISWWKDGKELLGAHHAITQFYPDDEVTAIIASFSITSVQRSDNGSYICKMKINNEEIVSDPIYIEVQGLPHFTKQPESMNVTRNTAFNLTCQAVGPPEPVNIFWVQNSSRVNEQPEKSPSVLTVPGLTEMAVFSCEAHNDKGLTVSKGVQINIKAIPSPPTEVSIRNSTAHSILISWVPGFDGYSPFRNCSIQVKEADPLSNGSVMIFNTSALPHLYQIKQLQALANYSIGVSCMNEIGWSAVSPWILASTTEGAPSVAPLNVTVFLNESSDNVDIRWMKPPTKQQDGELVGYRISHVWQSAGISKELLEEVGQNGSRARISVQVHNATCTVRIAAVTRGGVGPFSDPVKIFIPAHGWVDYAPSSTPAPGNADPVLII

T3: extracellular domain of human Axl, Fc fusion (R&D Systems 154-AL-100) (human, UniProt P30530 26-451)
T3 construct: Bought protein; also called hAxl; hAXL; not shown: Fc of the bought ECD-Fc fusion
T3 sequence: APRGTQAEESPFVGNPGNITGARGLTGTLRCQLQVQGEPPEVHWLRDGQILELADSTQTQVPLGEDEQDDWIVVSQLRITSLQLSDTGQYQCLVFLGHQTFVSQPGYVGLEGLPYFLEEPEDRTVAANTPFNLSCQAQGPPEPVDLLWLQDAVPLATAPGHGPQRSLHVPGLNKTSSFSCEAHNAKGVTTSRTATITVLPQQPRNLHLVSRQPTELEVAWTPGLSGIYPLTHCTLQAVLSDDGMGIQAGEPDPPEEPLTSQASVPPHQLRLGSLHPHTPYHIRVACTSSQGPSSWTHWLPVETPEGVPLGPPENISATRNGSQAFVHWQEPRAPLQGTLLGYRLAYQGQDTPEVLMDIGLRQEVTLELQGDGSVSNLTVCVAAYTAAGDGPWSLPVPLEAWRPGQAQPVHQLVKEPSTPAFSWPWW

T4: Tyro3 ECD Ig2-FNIII 1
T4 construct: also called Ig2 + FNIII 1 fragment of hTyro3 ECD, His-Strep tagged
T4 fragment: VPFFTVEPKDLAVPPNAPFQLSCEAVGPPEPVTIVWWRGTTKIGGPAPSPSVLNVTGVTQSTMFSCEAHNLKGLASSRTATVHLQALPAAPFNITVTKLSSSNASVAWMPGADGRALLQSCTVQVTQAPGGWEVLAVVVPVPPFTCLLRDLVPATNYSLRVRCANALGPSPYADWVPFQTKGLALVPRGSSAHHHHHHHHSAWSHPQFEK

T5: Tyro3 ECD FNIII 1-FNIII-2
T5 construct: also called FNIII 1 + FNIII 2 fragment of hTyro3 ECD, His-Strep tagged
T5 fragment: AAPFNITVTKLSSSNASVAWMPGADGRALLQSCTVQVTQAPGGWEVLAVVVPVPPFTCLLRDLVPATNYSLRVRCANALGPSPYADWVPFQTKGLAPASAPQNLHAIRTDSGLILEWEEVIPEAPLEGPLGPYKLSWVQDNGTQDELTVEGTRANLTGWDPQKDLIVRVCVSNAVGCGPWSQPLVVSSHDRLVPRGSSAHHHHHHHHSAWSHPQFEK

T6: Ig-1 domain fragment of human Tyro3 ECD, His-Strep tagged (human)
T6 chain: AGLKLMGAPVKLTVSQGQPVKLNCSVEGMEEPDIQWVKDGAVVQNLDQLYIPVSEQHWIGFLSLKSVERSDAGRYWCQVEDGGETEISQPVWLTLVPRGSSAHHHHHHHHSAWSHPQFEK

T7: Ig-1 and Ig-2 domains fragment of human Tyro3 ECD, His-Strep tagged (human)
T7 construct: also called Ig1-Ig2 fragment
T7 chain: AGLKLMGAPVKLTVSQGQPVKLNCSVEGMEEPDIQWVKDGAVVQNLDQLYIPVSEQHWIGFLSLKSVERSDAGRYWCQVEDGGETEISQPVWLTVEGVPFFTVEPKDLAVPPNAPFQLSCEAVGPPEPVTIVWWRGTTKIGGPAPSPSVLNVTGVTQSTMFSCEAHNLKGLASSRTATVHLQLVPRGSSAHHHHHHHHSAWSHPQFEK


How the values were obtained:
hTyro 3-ECD = molecular target: T1, hTyro 3-ECD; test: ELISA, ECD coated 1 µg/well, scFv 1 µg/mL, anti-tag-HRP
Experimental: (§1) Extracellular domains of hTyro 3 (859-DK-100), hAxl (154-AL-100) or hMer (891-MR-100) from R&D Systems were coated onto 96-wells microtiter plates (1 μg/well) in PBS and incubated overnight at 4° C. Plates were washed three times with PBS and blocked in PBS/3% BSA for 1 hour at RT. Plates were washed as above and scFvs were added at 1 μg/mL (diluted in PBS) and incubated for 1 hour at RT. Plates were washed three times with PBST (PBS/0.01% Tween-20) and secondary antibody anti-FLAG-HRP was added (Abcam, ab49763, 1/5000 dilution in blocking buffer) for 1 hour at RT. Plates were washed as above with PBST and signal was developed with Ultra-TMB reagent (Thermo Scientific, 34028).

[1] = molecular target: T2, extracellular domain of human Mer, Fc …; test: as above
Experimental: as §1

[2] = molecular target: T3, extracellular domain of human Axl, Fc …; test: as above
Experimental: as §1

Tyro3 ECD Ig2-FNIII 1 = molecular target: T4, Tyro3 ECD Ig2-FNIII 1; test: sandwich ELISA, Strep-tagged fragment captured on StrepMAB plate, scFv 10 µg/mL (Table 17), anti-FLAG-HRP
[3] = molecular target: T5, Tyro3 ECD FNIII 1-FNIII-2; test: as above
[4] = molecular target: T6, Ig-1 domain fragment of human Tyro3 …; test: as above
[5] = molecular target: T7, Ig-1 and Ig-2 domains fragment of human …; test: as above

binding result (hTyro 3-ECD)	binding result [1]	binding result [2]	binding result (Tyro3 ECD Ig2-FNIII 1)	binding result [3]	binding result [4]	binding result [5]	Binder
binds	no binding (tested: 1 µg/mL)	no binding (tested: 1 µg/mL)	binds	no binding (tested: 10 µg/mL)	binds	binds	anti-Tyro3 scFv 2413 (scFv, V domains shown, Tested as a single-chain Fv made in E. coli) VH: EVQLVQSGADVKKPGASLTISCQASGYTFTDYWISWVRQKPGKGLEWMGRIHTYQSSTRYGPSFQGHVTISADRSTATAYLQWRSLEASDTAMYYCVRHHSTTTANPYSSWGPGTLVTVSS VL: SYELTQPPSVSVSPGQTARITCSGDALPKKYAYWYQQKSGQAPVLVIYEDDKRLSGIPERFSGSSSGTMATLTISGAQVEDEADYYCYSTEINGNYAVFGGGTKLTVL
binds	no binding (tested: 1 µg/mL)	no binding (tested: 1 µg/mL)	binds	binds	no binding (tested: 10 µg/mL)	no binding (tested: 10 µg/mL)	anti-Tyro3 scFv 2718 (scFv, V domains shown, Tested as a single-chain Fv made in E. coli) VH: EVQLVQSGADVKKPGASLTISCQASGYTFTDYWISWVRQKPGKGLEWMGHINPMRSTTTYGPSFQGHVTISADRSTATAYLQWHSLEASDTAMYYCVRNDNHDDYTYTDDWGPGTLVTVSS VL: SYELTQPPSVSVSPGQTARITCSGDALPKKYAYWYQQKSGQAPVLVIYEDTKRHSGIPERFSGSSSGTMATLTISGAQVEDEADYYCYSAEHRGNYAVFGGGTKLTVL
binds	no binding (tested: 1 µg/mL)	no binding (tested: 1 µg/mL)	binds	no binding (tested: 10 µg/mL)	binds	binds	anti-Tyro3 scFv 2411 (scFv, V domains shown, Tested as a single-chain Fv made in E. coli) VH: EVQLVQSGADVKKPGASLTISCQASGYTFTDYWISWVRQKPGKGLEWMGSITRSSSRTHYGPSFQGHVTISADRSTATAYLQWRSLEASDTAMYYCVRGYTHLRTWGPGTLVTVSS VL: SYELTQPPSVSVSPGQTARITCSGDALPKKYAYWYQQKSGQAPVLVIYEDSKRSSGIPERFSGSSSGTMATLTISGAQVEDEADYYCYSANQRGNYMVFGGGTKLTVL
